Results published in patent publication US20260275304A1, “METHODS AND COMPOSITIONS FOR GLYPHOSATE TOLERANCE IN PLANTS” (Monsanto Technology LLC, priority 2023, published 2026).
Substitutions are numbered along the chain they refer to. Numbers in names are those of the source.

B1: TIPS: Zea mays EPSPS double mutant T102I and P106S, SEQ ID NO:9; positive control (protein)
chain: AGAEEIVLQPIKEISGTVKLPGSKSLSNRILLLAALSEGTTVVDNLLNSEDVHYMLGALRTLGLSVEADKAAKRAVVVGCGGKFPVEDSKEEVQLFLGNAGIAMRSLTAAVTAAGGNATYVLDGVPRMRERPIGDLVVGLKQLGADVDCFLGTDCPPVRVNGIGGLPGGKVKLSGSISSQYLSALLMAAPLALGDVEIEIIDKLISIPYVEMTLRLMERFGVKAEHSDSWDRFYIKGGQKYKSPKNAYVEGDASSASYFLAGAAITGGTVTVEGCGTTSLQGDVKFAEVLEMMGAKVTWTETSVTVTGPPREPFGRKHLKAIDVNMNKMPDVAMTLAVVALFADGPTAIRDVASWRVKETERMVAIRTELTKLGASVEEGPDYCIITPPEKLNVTAIDTYDDHRMAMAFSLAACAEVPVAIRDPGCTRKTFPDYFDVLSTFVKN
modifications: Zea mays
notes: positive control
B2: TIPS-P126S-K296R: maize EPSPS variant, probably SEQ ID NO:11 (protein)
chain: B1 chain with P126S, K296R
modifications: Zea mays

How the values were obtained:
[1] = test system: transgenic maize plants; assay: Greenhouse glyphosate spray test on hybrid (hemizygous) transgenic maize; assay type: in vivo, Zea mays; conditions: for Average Injury At 1120 g/ha: Roundup PowerMax3, 1× field rate; for Average Injury At 1120 g/ha / Average Injury At 2240 g/ha: 18 days after treatment, scale of 0 to 100; for Average Injury At 2240 g/ha: Roundup PowerMax3, 2× field rate
Procedure: To further evaluate the performance of EPSPS variants for glyphosate tolerance, transgenic maize plants comprising a single copy of the transgene encoding the EPSPS variants TIPS-P126S-M217L-K296R or TIPS-P126S-K296R were grown to maturity. Homozygous transgenic plants were crossed with an inbred line to produce hybrid seeds.
Plants from the hybrid seeds (hemizygous for the transgenes) of two independent transformation events for each of the two variants were grown in the greenhouse for glyphosate spray test. Roundup® PowerMax3, a commercial formulation of glyphosate, was applied at the third leaf stage at two rates: 1120 gram/hectare (1× the field rate) and 2240 gram/hectare (2× the field rate). The controls included an untreated untransformed control without glyphosate treatment, an untransformed control sprayed with glyphosate, and a TIPS positive control both sprayed with glyphosate. Glyphosate herbicide injury (plant stunting, chlorosis, necrosis, malformation, and death) was assessed by visual inspection of the plants 18 days after herbicide treatment. Herbicide injury rate was presented on a scale of 0 to 100 with “0” being no visible crop injury and “100” being complete crop injury or death.

[2] = test system: S. cerevisiae strain sKR-024; assay: Mock selection for glyphosate resistance, 50:50 inoculum, flow cytometry; assay type: cell-based, Saccharomyces cerevisiae
Procedure: Yeast cultures were either started directly from a random colony or from freezer stock and picked in triplicate into appropriate selective media, either YSC-Ura, YSC-Leu, and YSC-Ura-Leu. Cultures were grown for 48 hours at 30° C. to saturation phase. Fully grown yeast cultures were then diluted back to OD 0.01 and allowed to grow for 48 hours at 30° C. in a 96 deep-well plate shaker. Fluorescence was then analyzed via flow cytometry (BD Accuri C6 Flow Cytometer, BD Biosciences) at an excitation of 588 nm and emission of 633 nm for mKate2 RFP. Yeast populations of interest were then gated according to relative size and complexity using a logarithmic plot of side scatter (SSC) and forward scatter (FSC) and spectra were generated outlining RFP fluorescence intensity vs. cell count. FlowJo software was used to analyze all flow cytometry data.
To do so, a mock selection for glyphosate resistance was achieved by transforming wild-type EPSPS into sKR-024 containing an RFP cassette and TIPS into sKR-024 without an RFP cassette to enable flow cytometry tracking of population distributions. A 50:50 starting inoculum of each strain was cultured in yeast minimal media containing 0, 2.5, 5, 7.5, or 10 mM glyphosate.

[3] = test system: transgenic maize plants; assay: Maize transformation with glyphosate selection, plantlet recovery and quality checks; assay type: in vivo, Zea mays; conditions: for Number of young plants passing quality control checks: in vivo; for Number of plantlets generated: under glyphosate selection, same amount of starting material
Description: Maize was used as a model system to test the functionality of the EPSPS variants because of detailed previous characterization of glyphosate tolerance in maize and a suitable transgenic plant generation protocol that relies on glyphosate. Plant transformation vectors were generated in which the native maize EPSPS sequence was used, which includes the native gene promoter elements, the native introns and exons and the native 3′ untranslated region and introduced mutations that corresponded to each of the selected amino acid changes. The native sequence was used to mimic as closely as possible how the selected EPSPS variants would perform if the variants were introduced directly in the genome without the help of strong expression elements. The following variants were selected for testing in a transgenic maize system: TIPS (as a control); TIPS-P126S-M217L-K296R; TIPS-P126S-K296R; T102I-P126S-K296R (where only the T102I change is present); P106S-P126S-K296R (where only the P106S change is present); and P126S-K296R (where neither of the TIPS changes are present).
Transgenic maize plants that expressed each of the six EPSPS variants were generated to determine if the variants conferred glyphosate tolerance to plants. The full DNA sequence encoding TIPS EPSPS (SEQ ID NO:1) was cloned from maize genomic DNA. In this sequence, the promoter and 5′ UTR are nucleotides 1:2556; the chloroplast transit peptide sequence is nucleotides 2557:2742; EXON 1 is nucleotides 2743:2856; INTRON 1 is nucleotides 2857:3384; EXON 2 is nucleotides 3385:3626; INTRON 2 is nucleotides 3627:3725; EXON 3 is nucleotides 3726:3879; INTRON 3 is nucleotides 3880:4152; EXON 4 is nucleotides 4153:4367; INTRON 4 is nucleotides 4368:4877; EXON 5 is nucleotides 4878:4995; INTRON 5 is nucleotides 4996:5155; EXON 6 is nucleotides 5156:5366; INTRON 6 is nucleotides 5367:5446; EXON 7 is nucleotides 5447:5508; INTRON 7 is nucleotides 5509:5617; EXON 8 is nucleotides 5618:5836; and the 3′ UTR is nucleotides 5837:6368. Mutations were then introduced into the EPSPS coding sequence in order to produce each of the six EPSPS variants to be tested. These mutated full genomic DNA sequences were then each cloned as a single expression cassette into plant transformation vectors.
Agrobacterium tumefaciens-mediated plant transformation was performed using methods known in the art. Glyphosate selection was used to select for transgenic events containing the transgene of interest and further screened for only those EPSPS variants that provided effective glyphosate tolerance in a plant cell. While all six EPSPS variants began the transformation process with the same amount of starting maize cellular material, there were differences in the number of small plantlets recovered that were capable of being transplanted to greenhouse soil media (Table 4). Transgenic events were further analyzed to determine transgene copy number. Healthy events with single copy of the transgene of interest were grown in the greenhouse soil media. Only three of the six EPSPS variants had more than one plant surviving. Up to twenty-five of these developing R0 plants were transplanted to larger pots and allowed to grow to maturity for seed collection in the greenhouse.

[4] = test system: transgenic maize plants; assay: Glyphosate spray test on R0 transgenic maize plants; assay type: in vivo, Zea mays; conditions: for Percent of sprayed plants showing glyphosate injury: 0.75 lb ae/acre POST at V3-V4, seven days after application; for plants injured by the glyphosate spray: injury observed 1 week following treatment
Procedure: Two of the six EPSPS variants had developing plants greater than twenty-five. The extra developing R0 plants from these two variants were utilized in a glyphosate spray test to determine the tolerance provided by the EPSPS variants to a typical post glyphosate application to young plants. The R0 plants were sprayed with glyphosate applied postemergence (POST) at 0.75 lb ae (acid equivalent)/acre (0.84 kg ae/ha) at the V3-V4 stage. Treated plants were evaluated for injury seven days after glyphosate application.

Molecule	tolerance to glyphosate ([1]; 2× field rate)	Average Injury At 1120 g/ha [1]	Average Injury At 2240 g/ha [1]	cell count after addition of glyphosate ([2]; 0, 2.5, 5, 7.5 or 10 mM glyphosate)	cell count in the absence of glyphosate ([2]; 0 mM glyphosate)	Number of young plants passing quality control checks [3]	Number of plantlets generated [3]	Percent of sprayed plants showing glyphosate injury [4]	plants injured by the glyphosate spray [4]	tolerance to glyphosate ([1]; equivalent 1× field dose)
B1	minor injuries	0	1.25	consistent cell count across multiple levels of glyphosate	consistently lower cell count of TIPS relative to wild-type EPSPS	35	192	30%	Three of the ten	
B2	minor injuries	0	17			38	190	0%	none	excellent tolerance
